The results in this text go back to patent US20200199192A1 (SHIRE NPS PHARMACEUTICALS, published 2020).

Series [1] concerns the molecule itself. As to the kind of experiment: microscale thermophoresis (MST), self-association; MST. On the procedure: Microscale thermophoresis (MST) and nano differential scanning fluorimetry (NanoDSF) were performed to characterize the dimer-monomer transition. MST was used to determine the monomer/dimer equilibrium dissociation constant Kd. MST is based on thermodriven diffusion of molecules while NanoDSF is based on Trp fluorescence and is commonly used for thermostability Tm.
A general note: In MST a laser heats a spot of the sample, and binding alters the fluorescence response.

Series [2] concerns the molecule itself. As to the kind of experiment: NanoDSF at room temperature, self-association. The source says: Only the tryptophan fluorescence from the protein contributes to the signal. If tryptophan is buried or stable, the peak is at 330 nm and if the tryptophan is exposed or flexible, the peak is at 350 nm.
(In general: In DSF a fluorescence change marks the thermal transition of the protein.)

B1: teduglutide (peptide)
peptide: HGDGSFSDEMNTILDNLAARDFINWLIQTKITD
notes: also called Gattex
Turning to B1, the Kd in series [1] is 24 µM; in series [2], 77 µM.

A word on the Kd: it is the free concentration of one partner at which half of the binding sites on the other are occupied at equilibrium, for simple one-to-one binding. A higher Kd goes with a looser complex.
